Here are results for four molecules from publication PMC12218847 (Nature Communications, 2025).

In data set [1] the target is His-tagged potato StISA1 (residues 48–793) (potato). The experiment in a line: AUC.
The data set “AUC” deals with the molecule itself. The experiment in a line: AUC.

The molecule “His-tagged potato StISA1 (residues 48–793) (enzyme)” gave a stoichiometry N in data set [1] of 2.

B1: His-tagged maize ZmISA1 (residues 45–789) (enzyme, UniProt O22637 45-789, looked up)
chain: AAARPVAEAVQAEEDDDDDDEEVAEERFALGGACRVLAGMPAPLGATALRGGVNFAVYSSGASAASLCLFAPGDLKADRVTEEVPLDPLLNRTGNVWHVFIHGDQLHGMLYGYRFDGVFAPERGQYYDVSNVVVDPYAKAVVSRGEYGVPAPGGSCWPQMAGMIPLPYNKFDWQGDLPLGYHQKDLVIYEMHLRGFTKHNSSKTKHPGTYIGAVSKLDHLKELGVNCIELMPCHEFNELEYFSSSSKMNFWGYSTINFFSPMARYSSSGIRDSGCGAINEFKAFVREAHKRGIEVIMDVVFNHTAEGNEKGPILSFRGIDNSTYYMLAPKGEFYNYSGCGNTFNCNHPVVREFIVDCLRYWVTEMHVDGFRFDLASILTRGCSLWDPVNVYGSPMEGDMITTGTPLVAPPLIDMISNDPILGNVKLIAEAWDAGGLYQVGQFPHWNVWSEWNGKYRDTVRQFIKGTDGFAGAFAECLCGSPQLYQAGGRKPWHSINFVCAHDGFTLADLVTYNSKYNLSNGEDNRDGENHNLSWNCGEEGEFASLSVRRLRKRQMRNFFVCLMVSQGVPMFYMGDEYGHTKGGNNNTYCHDHYVNYFRWDKKEEQSSDLYRFCRLMTKFRKECESLGLEDFPTSERLKWHGHQPGKPDWSEASRFVAFTMKDETKGEIYVAFNTSHLPVVVGLPERSGFRWEPVVDTGKEAPYDFLTDGLPDRAVTVYQFSHFLNSNLYPMLSYSSIILVLRPDV
In the case of B1, the “stoichiometry N” value in “AUC” stood at 2.

B2: His-tagged OsISA1 (amino acids 55–803) (enzyme, Oryza sativa (rice), UniProt D0TZF0 55-803, looked up)
chain: SVASAVEVGVGEDEEEGVEEEEEEVEAVVMPERYALGGACRVLAGMPAPLGATALDGGVNFAVYSAGASAASLCLFTPDDLEADEVTEEVPLDPLFNRTGNVWHVFIEGELHNMLYGYRFDGMFAPHCGQYFDVSNVVVDPYAKAVISRGEYGVPGPGGDCWPQMAGMIPLPYSTFDWQGDLPLRYPQKDLVIYEMHLRGFTKHSSSNVEHPGTYIGAISKLDYLKELGVNCVELMPCHEFNELEYFSCSSKMNFWGYSTINFFSPMIRYSSGGIRNCGRDAINEFKTFVREAHKRGIEVIMDVVFNHTAEGNEKGPILSFRGIDNSTYYMLAPKGEFYNYSGCGNTFNCNHPVVREFIVDCLRYWVTEMHVDGFRFDLASIMTRGCSLWDPVNVYGSPVEGDMTTTGTPLATPPLIDMISNDPILGDVKLIAEAWDAGGLYQVGQFPHWKIWSEWNGKYRDIVRQFIKGTDGFAGGFAECLCGSPHLYQAGGRKPWHSINFVCAHDGFTLADLVTYNKKYNSSNGEDNRDGENHNLSWNCGEEGEFAGLSVKRLRKRQMRNFFVSLMVSQGVPMFYMGDEYGHTKGGNNNTYCHDHYVNYFRWDKKEESSDLQRFCSLMTKFRKQCESLGLADFPTAQRLHWHGHQPGKPDWSETSRFVAFSTKDETKGEIYVAFNASHLPAVVGLPERPGYRWEPLVDTGKPAPYDFLTDDLPDRAHAVHLFSHFLNSNLYPMLSYSSIILELQPDD
On to B2, for which, in “AUC”, the “stoichiometry N” value was 2.

B3: Arabidopsis AtISA1 (residues 44–783) with C-terminal 6×His-tag (enzyme, UniProt O04196 44-783, looked up)
chain: AKDRRSNEAENIAVVEKPLKSDRFFISDGLPSPFGPTVRDDGVNFSVYSTNSVSATICLISLSDLRQNKVTEEIQLDPSRNRTGHVWHVFLRGDFKDMLYGYRFDGKFSPEEGHYYDSSNILLDPYAKAIISRDEFGVLGPDDNCWPQMACMVPTREEEFDWEGDMHLKLPQKDLVIYEMHVRGFTRHESSKIEFPGTYQGVAEKLDHLKELGINCIELMPCHEFNELEYYSYNTILGDHRVNFWGYSTIGFFSPMIRYASASSNNFAGRAINEFKILVKEAHKRGIEVIMDVVLNHTAEGNEKGPIFSFRGVDNSVYYMLAPKGEFYNYSGCGNTFNCNHPVVRQFILDCLRYWVTEMHVDGFRFDLGSIMSRSSSLWDAANVYGADVEGDLLTTGTPISCPPVIDMISNDPILRGVKLIAEAWDAGGLYQVGMFPHWGIWSEWNGKFRDVVRQFIKGTDGFSGAFAECLCGSPNLYQGGRKPWHSINFICAHDGFTLADLVTYNNKNNLANGEENNDGENHNYSWNCGEEGDFASISVKRLRKRQMRNFFVSLMVSQGVPMIYMGDEYGHTKGGNNNTYCHDNYMNYFRWDKKEEAHSDFFRFCRILIKFRDECESLGLNDFPTAKRLQWHGLAPEIPNWSETSRFVAFSLVDSVKKEIYVAFNTSHLATLVSLPNRPGYRWEPFVDTSKPSPYDCITPDLPERETAMKQYRHFLDANVYPMLSYSSIILLLSPIKDP
With B3, in “AUC”, the “stoichiometry N” value came out at 2.
